Measured values reported in IntAct's records for PubMed 21423148.

B1: Calcium-binding protein 39 (Homo sapiens), Q9Y376 (parent)
chain: MPFPFGKSHKSPADIVKNLKESMAVLEKQDISDKKAEKATEEVSKNLVAMKEILYGTNEKEPQTEAVAQLAQELYNSGLLSTLVADLQLIDFEGKKDVAQIFNNILRRQIGTRTPTVEYICTQQNILFMLLKGYESPEIALNCGIMLRECIRHEPLAKIILWSEQFYDFFRYVEMSTFDIASDAFATFKDLLTRHKLLSAEFLEQHYDRFFSEYEKLLHSENYVTKRQSLKLLGELLLDRHNFTIMTKYISKPENLKLMMNLLRDKSRNIQFEAFHVFKVFVANPNKTQPILDILLKNQAKLIEFLSKFQNDRTEDEQFNDEKTYLVKQIRDLKRPAQQEA
partner: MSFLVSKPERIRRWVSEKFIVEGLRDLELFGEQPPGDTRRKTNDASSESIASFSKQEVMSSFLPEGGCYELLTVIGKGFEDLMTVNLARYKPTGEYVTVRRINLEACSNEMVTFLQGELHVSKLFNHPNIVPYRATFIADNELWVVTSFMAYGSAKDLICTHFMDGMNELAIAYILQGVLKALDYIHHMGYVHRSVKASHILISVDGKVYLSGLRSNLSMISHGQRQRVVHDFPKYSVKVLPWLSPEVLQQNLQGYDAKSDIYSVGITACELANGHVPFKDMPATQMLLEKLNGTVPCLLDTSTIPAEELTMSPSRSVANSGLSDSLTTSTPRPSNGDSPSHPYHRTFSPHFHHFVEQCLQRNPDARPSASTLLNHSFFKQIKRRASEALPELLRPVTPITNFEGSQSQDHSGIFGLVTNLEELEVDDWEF
B2: Calcium-binding protein 39 (Homo sapiens), Q9Y376 (parent)
chain: B1 chain

Assays:
[1] = variants of: B1; conditions: with straa_human STRADA
[2] = variants of: B2; conditions: with stk39_human STK39, Q9UEW8
[3] = variants of: B2; conditions: with oxsr1_human OXSR1, O95747
[4] = variants of: B2; conditions: with stk26_human STK26, Q9P289
[5] = variants of: B2; conditions: with stk26_human STK26, Q9P289; remark: listed apart in the source
[6] = variants of: B2; conditions: with stk39_human STK39, Q9UEW8; remark: listed apart in the source
[7] = variants of: B2; conditions: with oxsr1_human OXSR1, O95747; remark: listed apart in the source
[8] = variants of: B2; conditions: with stk25_human STK25, O00506
[9] = variants of: B2; conditions: with stk26_human STK26, Q9P289; remark: listed apart in the source
[10] = variants of: B2; conditions: with stk39_human STK39, Q9UEW8; remark: listed apart in the source
[11] = variants of: B2; conditions: with oxsr1_human OXSR1, O95747; remark: listed apart in the source

oxsr1_human OXSR1, O95747, sequence (O95747 whole entry, looked up): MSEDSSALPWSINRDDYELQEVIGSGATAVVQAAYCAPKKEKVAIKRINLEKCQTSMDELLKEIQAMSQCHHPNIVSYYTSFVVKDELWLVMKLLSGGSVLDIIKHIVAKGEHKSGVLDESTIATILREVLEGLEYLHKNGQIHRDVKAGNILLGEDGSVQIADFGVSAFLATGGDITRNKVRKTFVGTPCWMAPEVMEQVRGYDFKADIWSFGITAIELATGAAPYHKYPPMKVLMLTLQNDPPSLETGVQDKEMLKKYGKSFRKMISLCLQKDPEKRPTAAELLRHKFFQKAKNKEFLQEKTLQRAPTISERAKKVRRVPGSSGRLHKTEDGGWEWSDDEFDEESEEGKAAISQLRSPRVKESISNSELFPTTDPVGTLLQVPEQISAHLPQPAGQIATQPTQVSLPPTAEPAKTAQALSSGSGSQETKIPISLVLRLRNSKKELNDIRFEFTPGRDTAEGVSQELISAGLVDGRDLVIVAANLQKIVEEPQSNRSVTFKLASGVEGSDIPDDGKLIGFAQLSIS
stk26_human STK26, Q9P289, sequence (Q9P289 whole entry, looked up): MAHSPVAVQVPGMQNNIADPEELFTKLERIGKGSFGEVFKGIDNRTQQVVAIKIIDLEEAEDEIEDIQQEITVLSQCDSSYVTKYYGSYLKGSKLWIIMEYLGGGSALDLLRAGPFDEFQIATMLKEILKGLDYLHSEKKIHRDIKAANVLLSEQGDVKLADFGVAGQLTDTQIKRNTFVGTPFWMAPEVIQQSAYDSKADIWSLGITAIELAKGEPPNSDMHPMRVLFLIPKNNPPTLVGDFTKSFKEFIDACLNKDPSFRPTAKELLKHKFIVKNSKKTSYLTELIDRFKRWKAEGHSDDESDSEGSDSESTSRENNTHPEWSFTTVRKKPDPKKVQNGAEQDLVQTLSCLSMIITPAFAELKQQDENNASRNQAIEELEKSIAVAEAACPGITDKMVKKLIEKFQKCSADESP
stk25_human STK25, O00506, sequence (O00506 whole entry, looked up): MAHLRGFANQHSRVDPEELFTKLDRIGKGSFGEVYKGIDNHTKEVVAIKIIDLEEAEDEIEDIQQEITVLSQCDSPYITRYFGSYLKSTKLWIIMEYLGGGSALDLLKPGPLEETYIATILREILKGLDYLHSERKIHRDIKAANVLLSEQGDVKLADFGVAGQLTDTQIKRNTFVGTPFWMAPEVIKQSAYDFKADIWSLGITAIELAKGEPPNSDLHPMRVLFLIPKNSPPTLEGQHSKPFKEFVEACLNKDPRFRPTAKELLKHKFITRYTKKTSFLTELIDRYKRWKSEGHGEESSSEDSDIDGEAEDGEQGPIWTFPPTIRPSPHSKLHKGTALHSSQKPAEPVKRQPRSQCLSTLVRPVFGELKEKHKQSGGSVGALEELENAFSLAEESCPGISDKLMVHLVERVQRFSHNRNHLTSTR

Variant	effect of a mutation on the interaction [1]	effect of a mutation on the interaction [2]	effect of a mutation on the interaction [3]	effect of a mutation on the interaction [4]	effect of a mutation on the interaction [5]	effect of a mutation on the interaction [6]	effect of a mutation on the interaction [7]	effect of a mutation on the interaction [8]	effect of a mutation on the interaction [9]	effect of a mutation on the interaction [10]	effect of a mutation on the interaction [11]
MPFPFGKSHKSPADIVKNLKESMAVLEKQDISDKKAEKATEEVSKNLVAMKEILYGTNEKEPQTEAVAQLAQELYNSGLLSTLVADLQLIDFEGKKDVAQIFNNILRRQIGTRTPTVEYICTQQNILFMLLKGYESPEIALNCGIMLRECIRHEPLAKIILWSEQFYDFFRYVEMSTFDIASDAFATFKDLLTRHKLLSAEFLEQHYDRFFSEYEKLLHSENYVTKAQSLKLLGELLLDRHNFTIMTKYISKPENLKLMMNLLRDKSRNIQFEAFHVFKVFVANPNKTQPILDILLKNQAKLIEFLSKFQNDRTEDEQFNDEKTYLVKQIRDLKRPAQQEA [R227A]	disrupting interaction										
MPFPFGKSHKSPADIVKNLKESMAVLEKQDISDKKAEKATEEVSKNLVAMKEILYGTNEKEPQTEAVAQLAQELYNSGLLSTLVADLQLIDFEGKKDVAQIFNNILRRQIGTRTPTVEYICTQQNILFMLLKGYESPEIALNCGIMLRECIRHEPLAKIILWSEQFYDFFRYVEMSTFDIASDAFATFKDLLTRHKLLSAEFLEQHYDRFFSEYEKLLHSENYVTKRQSLKLLGELLLDRHNFTIMTKYISKPENLKLMANLLRDKSRNIQFEAFHVFKVFVANPNKTQPILDILLKNQAKLIEFLSKFQNDRTEDEQFNDEKTYLVKQIRDLKRPAQQEA [M260A]	disrupting interaction										
MPFPFGKSHKSPADIVKNLKESMAVLEKQDISDKKAEKATEEVSKNLVAMKEILYGTNEKEPQTEAVAQLAQELYNSGLLSTLVADLQLIDFEGKKDVAQIFNNILRRQIGTRTPTVEYICTQQNILFMLLKGYESPEIALNCGIMLRECIRHEPLAKIILWSEQFYDFFRYVEMSTFDIASDAFATFKDLLTRHKLLSAEFLEQHYDRFFSEYEKLLHSENYVTKAQSLKLLGELLLDRHNFTIMTKYISKPENLKLMMNLLRDKSRNIQFEAFHVFKVFVANPNKTQPILDILLKNQAKLIEFLSKFQNDRTEDEQFNDEKTYLVKQIRDLKRPAQQEA [R227A]		disrupting interaction	disrupting interaction	disrupting interaction	decreasing interaction	decreasing interaction	decreasing interaction	disrupting interaction			
MPFPFGKSHKSPADIVKNLKESMAVLEKQDISDKKAEKATEEVSKNLVAMKEILYGTNEKEPQTEAVAQLAQELYNSGLLSTLVADLQLIDFEGKKDVAQIFNNILRRQIGTRTPTVEYICTQQNILFMLLKGYESPEIALNCGIMLRECIRHEPLAKIILWSEQFYDFFRYVEMSTFDIASDAFATFKDLLTRHKLLSAEFLEQHYDRFFSEYEKLLHSENYVTKRQSLKLLGELLLDRHNFTIMTKYISKPENLKLMANLLRDKSRNIQFEAFHVFKVFVANPNKTQPILDILLKNQAKLIEFLSKFQNDRTEDEQFNDEKTYLVKQIRDLKRPAQQEA [M260A]		disrupting interaction	disrupting interaction	disrupting interaction				disrupting interaction	decreasing interaction	decreasing interaction	decreasing interaction
